Experiment: Directed evolution of UGT76G1, Rebaudioside D to Rebaudioside M, round 1 (Example 26)
Type: biochemical
Conditions: 100 μL fresh lysate, 0.5 mM Rebaudioside D, 30° C., pH 7.2
How it was run: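 Cleared cell lysate (Bugbuster) incubated with 0.5 mM Rebaudioside D, 3 mM MgCl2 and 2.5 mM UDP-glucose in 50 mM phosphate pH 7.2 at 30 °C. Samples at 2, 4, 7 and 24 h analysed by HPLC-CAD for conversion and initial rate.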

Molecule	initial rate	conversion Reb D to Reb M after 24 h
UGT76G1var69: UGT76G1 variant, mutations S274G_I295T_I335V_L379A (protein, UniProt Q6VAB4 1-458, looked up, variant S274G I295T I335V L379A) UDP-glycosyltransferase 76G1: MENKTETTVRRRRRIILFPVPFQGHINPILQLANVLYSKGFSITIFHTNFNKPKTSNYPHFTFRFILDNDPQDERISNLPTHGPLAGMRIPIINEHGADELRRELELLMLASEEDEEVSCLITDALWYFAQSVADSLNLRRLVLMTSSLFNFHAHVSLPQFDELGYLDPDDKTRLEEQASGFPMLKVKDIKSAYSNWQILKEILGKMIKQTKASSGVIWNSFKELEESELETVIREIPAPSFLIPLPKHLTASSSSLLDHDRTVFQWLDQQPPGSVLYVSFGSTSEVDEKDFLETARGLVDSKQSFLWVVRPGFVKGSTWVEPLPDGFLGERGRVVKWVPQQEVLAHGAIGAFWTHSGWNSTLESVCEGVPMIFSDFGADQPLNARYMSDVLKVGVYLENGWERGEIANAIRRVMVDEEGEYIRQNARVLKQKADVSLMKGGSSYESLESLVSYISSL	8.3E+06 Reb M area/min	
UGT76G1var70: UGT76G1 variant, mutations E224A_I295T_V300A_G348P (protein, UniProt Q6VAB4 1-458, looked up, variant E224A I295T V300A G348P) UDP-glycosyltransferase 76G1: MENKTETTVRRRRRIILFPVPFQGHINPILQLANVLYSKGFSITIFHTNFNKPKTSNYPHFTFRFILDNDPQDERISNLPTHGPLAGMRIPIINEHGADELRRELELLMLASEEDEEVSCLITDALWYFAQSVADSLNLRRLVLMTSSLFNFHAHVSLPQFDELGYLDPDDKTRLEEQASGFPMLKVKDIKSAYSNWQILKEILGKMIKQTKASSGVIWNSFKALEESELETVIREIPAPSFLIPLPKHLTASSSSLLDHDRTVFQWLDQQPPSSVLYVSFGSTSEVDEKDFLETARGLADSKQSFLWVVRPGFVKGSTWVEPLPDGFLGERGRIVKWVPQQEVLAHPAIGAFWTHSGWNSTLESVCEGVPMIFSDFGLDQPLNARYMSDVLKVGVYLENGWERGEIANAIRRVMVDEEGEYIRQNARVLKQKADVSLMKGGSSYESLESLVSYISSL	8.4E+06 Reb M area/min	24.0%
UGT76G1var71: UGT76G1 variant, mutations I295M_V300A_K393G_Q432E (protein, UniProt Q6VAB4 1-458, looked up, variant I295M V300A K393G Q432E) UDP-glycosyltransferase 76G1: MENKTETTVRRRRRIILFPVPFQGHINPILQLANVLYSKGFSITIFHTNFNKPKTSNYPHFTFRFILDNDPQDERISNLPTHGPLAGMRIPIINEHGADELRRELELLMLASEEDEEVSCLITDALWYFAQSVADSLNLRRLVLMTSSLFNFHAHVSLPQFDELGYLDPDDKTRLEEQASGFPMLKVKDIKSAYSNWQILKEILGKMIKQTKASSGVIWNSFKELEESELETVIREIPAPSFLIPLPKHLTASSSSLLDHDRTVFQWLDQQPPSSVLYVSFGSTSEVDEKDFLEMARGLADSKQSFLWVVRPGFVKGSTWVEPLPDGFLGERGRIVKWVPQQEVLAHGAIGAFWTHSGWNSTLESVCEGVPMIFSDFGLDQPLNARYMSDVLGVGVYLENGWERGEIANAIRRVMVDEEGEYIRQNARVLKEKADVSLMKGGSSYESLESLVSYISSL	2.1E+07 Reb M area/min	
UGT76G1var72: UGT76G1 variant, mutations T284L_D301N_K303G_S375R (protein, UniProt Q6VAB4 1-458, looked up, variant T284L D301N K303G S375R) UDP-glycosyltransferase 76G1: MENKTETTVRRRRRIILFPVPFQGHINPILQLANVLYSKGFSITIFHTNFNKPKTSNYPHFTFRFILDNDPQDERISNLPTHGPLAGMRIPIINEHGADELRRELELLMLASEEDEEVSCLITDALWYFAQSVADSLNLRRLVLMTSSLFNFHAHVSLPQFDELGYLDPDDKTRLEEQASGFPMLKVKDIKSAYSNWQILKEILGKMIKQTKASSGVIWNSFKELEESELETVIREIPAPSFLIPLPKHLTASSSSLLDHDRTVFQWLDQQPPSSVLYVSFGSLSEVDEKDFLEIARGLVNSGQSFLWVVRPGFVKGSTWVEPLPDGFLGERGRIVKWVPQQEVLAHGAIGAFWTHSGWNSTLESVCEGVPMIFRDFGLDQPLNARYMSDVLKVGVYLENGWERGEIANAIRRVMVDEEGEYIRQNARVLKQKADVSLMKGGSSYESLESLVSYISSL	9.1E+06 Reb M area/min	
UGT76G1var73: UGT76G1 variant, mutations F22Y_D301N_R334H_Q342E_V396F (protein, UniProt Q6VAB4 1-458, looked up, variant F22Y D301N R334H Q342E V396F) UDP-glycosyltransferase 76G1: MENKTETTVRRRRRIILFPVPYQGHINPILQLANVLYSKGFSITIFHTNFNKPKTSNYPHFTFRFILDNDPQDERISNLPTHGPLAGMRIPIINEHGADELRRELELLMLASEEDEEVSCLITDALWYFAQSVADSLNLRRLVLMTSSLFNFHAHVSLPQFDELGYLDPDDKTRLEEQASGFPMLKVKDIKSAYSNWQILKEILGKMIKQTKASSGVIWNSFKELEESELETVIREIPAPSFLIPLPKHLTASSSSLLDHDRTVFQWLDQQPPSSVLYVSFGSTSEVDEKDFLEIARGLVNSKQSFLWVVRPGFVKGSTWVEPLPDGFLGERGHIVKWVPQEEVLAHGAIGAFWTHSGWNSTLESVCEGVPMIFSDFGLDQPLNARYMSDVLKVGFYLENGWERGEIANAIRRVMVDEEGEYIRQNARVLKQKADVSLMKGGSSYESLESLVSYISSL	8.7E+05 Reb M area/min	0.8%
UGT76G1var74: UGT76G1 variant, mutations I295T_I373L_S375R_Y397Q_Q432E (protein, UniProt Q6VAB4 1-458, looked up, variant I295T I373L S375R Y397Q Q432E) UDP-glycosyltransferase 76G1: MENKTETTVRRRRRIILFPVPFQGHINPILQLANVLYSKGFSITIFHTNFNKPKTSNYPHFTFRFILDNDPQDERISNLPTHGPLAGMRIPIINEHGADELRRELELLMLASEEDEEVSCLITDALWYFAQSVADSLNLRRLVLMTSSLFNFHAHVSLPQFDELGYLDPDDKTRLEEQASGFPMLKVKDIKSAYSNWQILKEILGKMIKQTKASSGVIWNSFKELEESELETVIREIPAPSFLIPLPKHLTASSSSLLDHDRTVFQWLDQQPPSSVLYVSFGSTSEVDEKDFLETARGLVDSKQSFLWVVRPGFVKGSTWVEPLPDGFLGERGRIVKWVPQQEVLAHGAIGAFWTHSGWNSTLESVCEGVPMLFRDFGLDQPLNARYMSDVLKVGVQLENGWERGEIANAIRRVMVDEEGEYIRQNARVLKEKADVSLMKGGSSYESLESLVSYISSL	9.6E+04 Reb M area/min	0.6%
UGT76G1var75: UGT76G1 variant, mutations F41L_A239I_Q266S_S375M_P382M (protein, UniProt Q6VAB4 1-458, looked up, variant F41L A239I Q266S S375M P382M) UDP-glycosyltransferase 76G1: MENKTETTVRRRRRIILFPVPFQGHINPILQLANVLYSKGLSITIFHTNFNKPKTSNYPHFTFRFILDNDPQDERISNLPTHGPLAGMRIPIINEHGADELRRELELLMLASEEDEEVSCLITDALWYFAQSVADSLNLRRLVLMTSSLFNFHAHVSLPQFDELGYLDPDDKTRLEEQASGFPMLKVKDIKSAYSNWQILKEILGKMIKQTKASSGVIWNSFKELEESELETVIREIPIPSFLIPLPKHLTASSSSLLDHDRTVFSWLDQQPPSSVLYVSFGSTSEVDEKDFLEIARGLVDSKQSFLWVVRPGFVKGSTWVEPLPDGFLGERGRIVKWVPQQEVLAHGAIGAFWTHSGWNSTLESVCEGVPMIFMDFGLDQMLNARYMSDVLKVGVYLENGWERGEIANAIRRVMVDEEGEYIRQNARVLKQKADVSLMKGGSSYESLESLVSYISSL	−1.3E+05 Reb M area/min	0.8%

From US11653679B2, “High-purity steviol glycosides” (PureCircle Sdn Bhd, priority 2014, dated 2023)
